From patent US20260193342A1 (ZOETIS SERVICES, published 2026)
Numbering of substitutions follows the chain as printed. Names and notes keep the numbering of the source.

Molecular target: canine FcRn complex (FcRn-α subunit and β-microglobulin) (canine, UniProt A0A8I3PFR8 25-347, biotin on the BAP tag by BirA (Example 5 only))
Experiment: SPR (Biacore), biotinylated FcRn on SA chip, IgG flowed, pH 6, 15 C

canine FcRn complex (FcRn-α subunit and β-microglobulin), sequence (A0A8I3PFR8 entry or part of it, one chain of several): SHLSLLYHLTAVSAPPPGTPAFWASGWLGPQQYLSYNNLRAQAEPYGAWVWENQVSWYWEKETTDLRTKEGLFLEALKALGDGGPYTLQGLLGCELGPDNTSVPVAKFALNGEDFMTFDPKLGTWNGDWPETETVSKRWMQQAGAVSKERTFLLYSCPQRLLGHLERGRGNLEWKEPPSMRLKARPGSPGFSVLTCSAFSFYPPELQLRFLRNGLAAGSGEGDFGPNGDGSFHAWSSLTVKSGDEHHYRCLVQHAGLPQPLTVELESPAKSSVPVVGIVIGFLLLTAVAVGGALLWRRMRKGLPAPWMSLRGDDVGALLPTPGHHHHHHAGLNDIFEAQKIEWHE

B1: mAb1, caninized anti-IL31 antibody 34D03, canine IgGA, WT (antibody)
heavy: EVQLVESGGDLVKPGGSLRLSCVASGFTFSNYGMSWVRQAPGKGLQWVATISYGGSYTYYPDNIKGRFTISRDNAKNTLYLQMNSLRAEDTAMYYCVRGYGYDTMDYWGQGTLVTVSSASTTAPSVFPLAPSCGSTSGSTVALACLVSGYFPEPVTVSWNSGSLTSGVHTFPSVLQSSGLHSLSSMVTVPSSRWPSETFTCNVVHPASNTKVDKPVFNECRCTDTPPCPVPEPLGGPSVLIFPPKPKDILRITRTPEVTCVVLDLGREDPEVQISWFVDGKEVHTAKTQSREQQFNGTYRVVSVLPIEHQDWLTGKEFKCRVNHIDLPSPIERTISKARGRAHKPSVYVLPPSPKELSSSDTVSITCLIKDFYPPDIDVEWQSNGQQEPERKHRMTPPQLDEDGSYFLYSKLSVDKSRWQQGDPFTCAVMHETLQNHYTDLSLSHSPGK
VL: EIVMTQSPASLSLSQEEKVTITCKASQSVSFAGTGLMHWYQQKPGQAPKLLIYRASNLEAGVPSRFSGSGSGTDFSFTISSLEPEDVAVYYCQQSREYPWTFGQGTKLEIK
notes: VH/VL: the caninized 34D03 entries of the listing; also called ID No. 1
Kd: 79.9 nM

B2: mAb1, caninized anti-IL31 antibody 34D03, canine IgGA, N434W (antibody)
heavy: B1 heavy with N436W
light: EIVMTQSPASLSLSQEEKVTITCKASQSVSFAGTGLMHWYQQKPGQAPKLLIYRASNLEAGVPSRFSGSGSGTDFSFTISSLEPEDVAVYYCQQSREYPWTFGQGTKLEIKRNDAQPAVYLFQPSPDQLHTGSASVVCLLNSFYPKDINVKWKVDGVIQDTGIQESVTEQDKDSTYSLSSTLTMSSTEYLSHELYSCEITHKSLPSTLIKSFQRSEC
notes: VH/VL: the caninized 34D03 entries of the listing; also called ID No. 6; copies: 2 + 2
Kd: 19.9 nM

B3: mAb1, caninized anti-IL31 antibody 34D03, canine IgGA, N434H (antibody)
chain 1: B1 heavy with N436H
chain 2: B2 light
Kd: 12.3 nM

B4: mAb1, caninized anti-IL31 antibody 34D03, canine IgGA, N434F (antibody)
chain 1: B1 heavy with N436F
chain 2: B2 light
Kd: 12.7 nM

B5: mAb1, caninized anti-IL31 antibody 34D03, canine IgGA, N434R (antibody)
chain 1: B1 heavy with N436R
chain 2: B2 light
Kd: 43.8 nM

B6: mAb2 of Table 4A, caninized anti-NGF antibody ZTS-841, canine IgGA, WT (antibody)
heavy: EVQLVESGGDLVKPGGSLRLSCVASGFTFSSHGMHWVRQSPGKGLQWVAVINSGGSSTYYTDAVKGRFTISRDNAKNTVYLQMNSLRAEDTAMYYCAKESVGGWEQLVGPHFDYWGQGTLVIVSSASTTAPSVFPLAPSCGSTSGSTVALACLVSGYFPEPVTVSWNSGSLTSGVHTFPSVLQSSGLHSLSSMVTVPSSRWPSETFTCNVVHPASNTKVDKPVFNECRCTDTPPCPVPEPLGGPSVLIFPPKPKDILRITRTPEVTCVVLDLGREDPEVQISWFVDGKEVHTAKTQSREQQFNGTYRVVSVLPIEHQDWLTGKEFKCRVNHIDLPSPIERTISKARGRAHKPSVYVLPPSPKELSSSDTVSITCLIKDFYPPDIDVEWQSNGQQEPERKHRMTPPQLDEDGSYFLYSKLSVDKSRWQQGDPFTCAVMHETLQNHYTDLSLSHSPGK
VL: QSVLTQPTSVSGSLGQRVTISCSGSTNNIGILGASWYQLFPGKAPKLLVYGNGNRPSGVPDRFSGADSGDSVTLTITGLQAEDEADYYCQSFDTTLGAHVFGGGTHLTVL
notes: also called ID No. 39
Kd: 95.5 nM

B7: mAb2 of Table 4A, caninized anti-NGF antibody ZTS-841, canine IgGA, N434F (antibody)
heavy: B6 heavy with N443F
VL: B6 VL
notes: also called ID No. 40
Kd: 9.81 nM

B8: mAb2 of Table 4A, caninized anti-NGF antibody ZTS-841, canine IgGA, N434R (antibody)
heavy: B6 heavy with N443R
VL: B6 VL
notes: also called ID No. 42
Kd: 15.1 nM

B9: mAb2 of Table 4A, caninized anti-NGF antibody ZTS-841, canine IgGA, N434H (antibody)
heavy: B6 heavy with N443H
VL: B6 VL
notes: also called ID No. 41
Kd: 10.4 nM

B10: mAb2 of Table 4A, caninized anti-NGF antibody ZTS-841, canine IgGA, N434S (antibody)
heavy: B6 heavy with N443S
VL: B6 VL
notes: also called ID No. 43
Kd: 147 nM
